The data set deals with the molecule itself. The data set is described as follows: SEC-MALS; 50 μl of purified protein injected on Superdex 200 10/300; 50 mM Tris pH 7.5, 100 mM NaCl, 2% glycerol, 1 mM TCEP, 2 mM MgCl2, ±1 mM ATP; self-association (monomer or dimer).

The text below walks through data of article PMC8986801, “Activation of the essential kinase PDK1 by phosphoinositide-driven trans-autophosphorylation” (Nature Communications, 2022).

The stoichiometry N is a count of units in the complex or per binding partner.

B1: PDK1^SKD-PIF S241A (PIFtide fused through a (GS)4 linker to the C-terminus of the short kinase domain, S241A) (other)
chain: QPRKKRPEDFKFGKILGEGSFSTVVLARELATSREYAIKILEKRHIIKENKVPYVTRERDVMSRLDHPFFVKLYFTFQDDEKLYFGLSYAKNGELLKYIRKIGSFDETCTRFYTAEIVSALEYLHGKGIIHRDLKPENILLNEDMHIQITDFGTAKVLSPESKQARANAFVGTAQYVSPELLTEKSACKSSDLWALGCIIYQLVAGLPPFRAGNEYLIFQKIIKLEYDFPEKFFPKARDLVEKLLVLDATKRLGCEEMEGYGPLKAHPFFESVTWENLHQQTPPKLTGSGSGSGSQEMFRDFDYIADWC
notes: 3-phosphoinositide-dependent kinase 1 (PDK1), human, residues 73-359 (short kinase domain); minimal poly Gly-Ser (GS)4 linker; PIFtide, a peptide derived from the hydrophobic motif of PRK2; also called C-terminal PIFtide SKD fusion S241A; dimer; source: baculovirus-infected Sf9 insect cells, purified (glutathione sepharose, 3C cleavage, HiTrap Q, gel filtration); not shown: GST, N-terminal, …
On to B1, for which the “stoichiometry N” value amounted to 2.
